In the Human Domainome abundance scans (Beltran et al. 2025):

B1: GA-binding protein alpha chain, residues 172 to 250; numbered along this chain, Q06546 (parent)
chain: GYRKEQERLGIPYDPIQWSTDQVLHWVVWVMKEFSMTDIDLTTLNISGRELCSLNQEDFFQRVPRGEILWSHLELLRKY

Variants of: B1
Test: abundance fitness (aPCA) (normalised: wild type 0, dead -1); higher = more abundant; growth selection in yeast, the domain comes from the species named
Conditions: Homo sapiens

Abundance fitness, by site and new letter:
V27: H -0.758 | W -0.732 | N -0.818 | D -0.75 | L -0.194 | K -0.478 | P -0.668 | Q -0.271 | C -0.073 | S -0.171 | M -0.106 | I -0.059 | E -0.913 | G -0.037 | T -0.245 | F -0.256
D38: F -0.492 | G -0.031 | A -0.154 | M -0.364 | N -0.082 | P -0.009 | H -0.055 | Y -0.261 | I -0.626 | V -0.364 | Q -0.099 | W -0.149 | R -0.168 | E 0.03 | K -0.091 | T -0.08 | S -0.063
F34: H 0.077 | W -0.092 | G -0.117 | Q -0.012 | N 0.081 | P -0.605 | C -0.068 | A -0.031 | S -0.063 | K 0.015 | M -0.175 | L -0.145 | E -0.056 | Y 0.015 | R -0.035 | T -0.061
S35: V -0.165 | A -0.086 | M -0.14 | R -0.045 | Q 0.014 | W -0.335 | P -0.091 | Y -0.205 | G 0.018 | T -0.013 | K -0.028 | N -0.009 | F -0.42 | C -0.044 | I -0.781 | H 0.008 | E -0.035 | L -0.204
W26: E -1 | N -0.894 | S -1.13 | M -0.976 | A -0.904 | F -0.404 | H -0.822 | C -0.866 | P -0.947 | K -0.906 | R -0.855 | T -1.03 | I -0.804 | Q -0.875 | Y -0.514 | L -0.886
D40: V -0.44 | M -0.543 | T -0.263 | R -0.292 | P -0.111 | N -0.043 | S -0.124 | Q -0.268 | C -0.281 | W -0.989 | E -0.112 | G -0.239 | I -0.533 | H -0.223 | K -0.23 | A -0.226 | Y -0.698
M31: D -0.794 | Q 0.059 | H -0.169 | F -0.09 | Y -0.322 | K -0.089 | A -0.046 | L -0.11 | R -0.155 | C 0.069 | T 0.018 | P -1.01 | I -0.031 | N -0.191 | E -0.289 | V -0.036 | G -0.089
L41: P -0.028 | G -0.134 | W -0.132 | R -0.191 | S -0.127 | F -0.094 | N -0.258 | E -0.153 | A -0.049 | Y -0.025 | I 0.006 | Q -0.117 | D -0.386 | M -0.008 | V -0.024 | H -0.063 | T -0.061 | C -0.056
M36: Q -0.08 | E -0.031 | A -0.025 | C 0.081 | R -0.029 | H -0.193 | I -0.05 | N -0.189 | V -0.013 | S -0.102 | G -0.182 | F -0.09 | D -0.019 | Y -0.053 | W -0.118 | K -0.062 | L 0.043 | P -0.196
V30: M -0.042 | S -0.076 | P -0.822 | H -0.134 | I -0.099 | Y -0.492 | Q -0.345 | W -0.339 | C 0.012 | D -0.763 | T 0.003 | G -0.051 | E -0.08 | L -0.12
